T1: RISBZ1 (Oryza sativa, UniProt Q6ZLB0 SEQ:1-436)
T1 sequence: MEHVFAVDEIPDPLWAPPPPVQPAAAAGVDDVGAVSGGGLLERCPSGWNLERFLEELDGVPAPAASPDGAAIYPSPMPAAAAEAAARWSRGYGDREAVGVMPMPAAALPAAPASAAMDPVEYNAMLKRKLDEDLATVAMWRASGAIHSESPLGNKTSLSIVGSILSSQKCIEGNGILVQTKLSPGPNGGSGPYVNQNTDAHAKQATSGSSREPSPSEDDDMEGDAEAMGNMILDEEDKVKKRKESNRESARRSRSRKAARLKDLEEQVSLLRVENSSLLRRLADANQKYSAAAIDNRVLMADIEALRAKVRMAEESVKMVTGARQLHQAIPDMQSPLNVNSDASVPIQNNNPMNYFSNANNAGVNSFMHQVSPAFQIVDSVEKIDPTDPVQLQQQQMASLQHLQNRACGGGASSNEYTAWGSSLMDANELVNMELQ

T2: Opaque2 (Zea mays, UniProt P12959 P12959:1-453)
T2 sequence: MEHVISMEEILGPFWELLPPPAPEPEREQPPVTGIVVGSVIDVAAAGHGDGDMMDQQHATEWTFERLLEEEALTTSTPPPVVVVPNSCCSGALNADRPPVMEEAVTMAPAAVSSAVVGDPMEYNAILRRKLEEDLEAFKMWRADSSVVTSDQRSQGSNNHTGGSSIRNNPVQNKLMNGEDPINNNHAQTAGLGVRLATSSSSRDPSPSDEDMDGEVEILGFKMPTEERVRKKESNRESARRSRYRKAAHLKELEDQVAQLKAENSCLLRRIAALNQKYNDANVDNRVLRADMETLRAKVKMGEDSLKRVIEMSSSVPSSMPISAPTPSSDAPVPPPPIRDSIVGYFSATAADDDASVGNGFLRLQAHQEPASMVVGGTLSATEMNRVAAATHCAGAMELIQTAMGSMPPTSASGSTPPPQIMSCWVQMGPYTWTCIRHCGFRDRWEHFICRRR

B1: full-length RISBZ1 protein (other)
chain: T1 sequence
notes: Untagged full-length protein translated in vitro from pET8c (TNT coupled wheat germ extract); the crude extract was used in the gel shift assay; also called rice seed b-Zipper 1
B2: 21-bp GCN4 reporter (dsDNA)
DNA 1: GTTTGTCATGGCTGAGTCATG
DNA 2: CATGACTCAGCCATGACAAAC

How the values were obtained:
[1] = target: the molecule itself; assay: gel shift assay of the Examples
[2] = target: T1, RISBZ1; assay: cell_activity; 1x21-bp reporter; 5x21-bp 127.1-fold
Excerpt: (§1) In addition, reporter plasmids, into which the GUS gene, and one or three repeat(s) of the 12-bp GCN4 motif or one or five repeat(s) of the 21-bp GCN4 motif were inserted, were constructed. For negative control experiments, a reporter plasmid comprising four repeats of a mutant 12-bp GCN4 motif and the GUS reporter gene was used. The mutant 12-bp GCN4 motif has a mutation in the target sequence that is recognized by the RISBZ1 and O2. These plasmid constructs were introduced alone or in combination with other reporter or effector plasmid into rice protoplast cells prepared from its callus culture, and the GUS activity was assayed. When the reporter plasmid or effector plasmid was introduced alone into the protoplast, the GUS activity was detected at a low level. […] Even in the presence of these effector plasmids, the transcriptional activity of the GUS gene downstream of the mutant 12-bp GCN4 motif was the same level as that of background. […] The transcriptional activity of the reporter gene induced by the RISBZ1 gene product was slightly higher than that induced by the O2 gene product. […] 1 to 12 copies of 21-bp GCN motif were assayed, and the transcriptional activity was enhanced proportionately up to 9 copies. […]

[3] = target: T2, Opaque2; assay: cell_activity; 1x21-bp reporter; 5x21-bp 114.7-fold
Excerpt: as §1

Row | Binder | binding result [1] | activity [2] | activity [3]
1 | B1 | binds |  | 
2 | B2 |  | 43.9 fold | 37.9 fold

Reference: patent US20040072159A1, “Bzip type transcription factors regulating the expression of rice storage protein” (published 2004)
